Test results reported in patent US20260167959A1, “APTAZYME-BASED REGULATABLE GENE EXPRESSION SYSTEMS” (REJUVENATE BIO INC, priority 2022, published 2026).

B1: RA123 (nucleic acid)
DNA: GCGCGTCCTGGATTCGCGGAAACGCGTCGGAATACCAGCATCGTCTTGATGCCCTTGGAAGTCCGACATCCAGCTGACGAGTCCCAAATAGGACGAAACGCGC
modifications: expressed or natural sequence
B2: RA126 (nucleic acid)
DNA: GCGCGTCCTGGATTCGCGGAAACGCGTACAAGAATACCAGCATCGTCTTGATGCCCTTGGAAGTCTTCCAGCTGACGAGTCCCAAATAGGACGAAACGCGC
modifications: expressed or natural sequence
B3: RA129 (nucleic acid)
DNA: GCGCGTCCTGGATTCCACTTCGGGTACATCCAGCTGACGAGTCCCAAATAGGACGAAACGCGC
modifications: expressed or natural sequence
B4: RA119 (nucleic acid)
DNA: GCGCGTCCTGGATTCGCGGAAACGCGTACATCCAGAGAATACCAGCATCGTCTTGATGCCCTTGGAAGTCTCTGACGAGTCCCAAATAGGACGAAACGCGC
modifications: expressed or natural sequence
B5: RA012 (nucleic acid)
DNA: GCGCGTCCTGGATTCGCGGAAACAGAATACCAGCATCGTCTTGATGCCCTTGGAAGTCTGCGTACATCCAGCTGACGAGTCCCAAATAGGACGAAACGCGC
modifications: expressed or natural sequence
B6: RA132 (nucleic acid)
DNA: GCGCGTCCTGGATTCGCGGAATACCAGCATCGTCTTGATGCCCTTGGAAGTCCGGAAACGCGTACATCCAGCTGACGAGTCCCAAATAGGACGAAACGCGC
modifications: expressed or natural sequence
B7: RA135 (nucleic acid)
DNA: GCGCGTCCTGGATTCGCGGAAACGAGTGATACCAGCATCGTCTTGATGCCCTTGGCAGCACTCGTACATCCAGCTGACGAGTCCCAAATAGGACGAAACGCGC
modifications: expressed or natural sequence
B8: RA122 (nucleic acid)
DNA: GCGCGTCCTGGATTCGCGGAAACGCGTACATCCAGCTGACGAGTCCCAAATAGGACGAGAATACCAGCATCGTCTTGATGCCCTTGGAAGTCTCGAAACGCGC
modifications: expressed or natural sequence
B9: RA125 (nucleic acid)
DNA: GCGCGTCCTGGATTCGCGGAAACGCGTACATCCAGCTGACGAGTCCCGGAATACCAGCATCGTCTTGATGCCCTTGGAAGTCCGGCCAAATAGGACGAAACGCGC
modifications: expressed or natural sequence
B10: RA136 (nucleic acid)
DNA: GCGCGTCCTGGATTCGCGGAAACGCGTACATCCAGCTGACGAGTCCCAAATAGGACGAAACGGAGAATACCAGCATCGTCTTGATGCCCTTGGAAGTCTCCGC
modifications: expressed or natural sequence
B11: RA013 (nucleic acid)
DNA: GCGCGTCCTGGATTCGCGGAAACGCGTACATCCAGCTGACGAGTCCCAAATAGGACGAAACGAGAATACCAGCATCGTCTTGATGCCCTTGGAAGTCTCGC
modifications: expressed or natural sequence
B12: RA130 (nucleic acid)
DNA: GCGCGTCCTGGATTCGCGGAAACGCGTACATCCAGCTGAGAATACCAGCATCGTCTTGATGCCCTTGGAAGTCTCGACGAGTCCCAAATAGGACGAAACGCGC
modifications: expressed or natural sequence
B13: RA133 (nucleic acid)
DNA: GCGCGAGAATACCAGCATCGTCTTGATGCCCTTGGAAGTCTCGTCCTGGATTCGCGGAAACGCGTACATCCAGCTGACGAGTCCCAAATAGGACGAAACGCGC
modifications: expressed or natural sequence
B14: RA134 (nucleic acid)
DNA: GCGCGTCCTGGATTCGCGGAAACGCGTACATCCAGCTGACGAGTCGGAATACCAGCATCGTCTTGATGCCCTTGGAAGTCCGCCCAAATAGGACGAAACGCGC
modifications: expressed or natural sequence
B15: RA124 (nucleic acid)
DNA: GCGCGTCCTGGATTCGCGGAAACGCGTACATCCAGCTGACGCGGAATACCAGCATCGTCTTGATGCCCTTGGAAGTCCGAGTCCCAAATAGGACGAAACGCGC
modifications: expressed or natural sequence
B16: RA137 (nucleic acid)
DNA: GCGCGTCCTGGATTCGCGGAAACGCGTACGAGAATACCAGCATCGTCTTGATGCCCTTGGAAGTCTCATCCAGCTGACGAGTCCCAAATAGGACGAAACGCGC
modifications: expressed or natural sequence
B17: RA121 (nucleic acid)
DNA: GCGCGTCCTGGATTCGAGAATACCAGCATCGTCTTGATGCCCTTGGAAGTCTCGCGGAAACGCGTACATCCAGCTGACGAGTCCCAAATAGGACGAAACGCGC
modifications: expressed or natural sequence
B18: RA128 (nucleic acid)
DNA: GCGCGTCCTGGATTCGCGGAAACGCGTAAGTGATACCAGCATCGTCTTGATGCCCTTGGCAGCACTCATCCAGCTGACGAGTCCCAAATAGGACGAAACGCGC
modifications: expressed or natural sequence
B19: RA127 (nucleic acid)
DNA: GCGCGTCCTGGATTCGCGGAAACGCGTACATCCAGCTGACGAGTCCCAAATAGGACGAAACGCGCCGGAATACCAGCATCGTCTTGATGCCCTTGGAAGTCCGGC
modifications: expressed or natural sequence
B20: RA120 (nucleic acid)
DNA: GCGCGTCCCCGGAATACCAGCATCGTCTTGATGCCCTTGGAAGTCCGGTGGATTCGCGGAAACGCGTACATCCAGCTGACGAGTCCCAAATAGGACGAAACGCGC
modifications: expressed or natural sequence
B21: RA131 (nucleic acid)
DNA: GCGCGTCCTAGAATACCAGCATCGTCTTGATGCCCTTGGAAGTCTGGATTCGCGGAAACGCGTACATCCAGCTGACGAGTCCCAAATAGGACGAAACGCGC
modifications: expressed or natural sequence

Each molecule was assayed on Renilla luciferase RNA (assay: Barcoded aptazyme variant library screen: un-cleaved Renilla luciferase RNA by barcode read counts, HEK293-T cells). Conditions: un-cleaved Renilla luciferase RNA, HEK293-T cells cultured with 1 mM theophylline (ON) over without theophylline (OFF); barcode read counts, triplicate.
Assay type: cell-based
In short: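 Aptazyme variants (seven theophylline aptamers inserted after each T3H48 ribozyme nucleotide, 9-nt barcoded) cloned into the 3′ UTR of Renilla luciferase in psiCHECK-2; cells cultured ± theophylline, in triplicate. RNA and DNA barcodes amplified and sequenced; normalized read counts gave un-cleaved RNA fraction and ON/OFF fold-change.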

Molecule	Fold change in RNA expression between the ON state and the OFF state [fold]
B1	1.5
B2	1.5
B3	1.4
B4	1.5
B5	3.4
B6	1.4
B7	1.4
B8	1.5
B9	1.5
B10	1.4
B11	3.3
B12	1.4
B13	1.4
B14	1.4
B15	1.5
B16	1.4
B17	1.5
B18	1.4
B19	1.4
B20	1.5
B21	1.4
